According to article PMC7958597, “In Vivo Biodistribution and Efficacy Evaluation of NeoB, A Radiotracer Targeted to GRPR, in Mice Bearing Gastrointestinal Stromal Tumor” (Cancers, 2021):
Where “and” joins values, the source holds several entries; their conditions need not be identical. Equal entries are not always repeated. Where two headings read alike, the source gives them in different places.

Key:
[1] = Biodistribution of [^177Lu]Lu-NeoB by organ sampling and gamma counting; type: in vivo, mice; conditions: male, mouse, iv, total radioactivity
Method: (§1) All procedures were performed in accordance with the institutional guidelines and approved by the animal care and use committee of Grenoble University (APAFIS#6544-2016082615349282 v8). The study was performed on 6-weeks old male SCID mice (Charles River). A total of 82 mice were used, 42 for the biodistribution sub-study and 40 for the therapy sub-study. Mice were subcutaneously inoculated into the left flank with GIST-882 (2 to 4 × 10^6) in a 1:1 PBS/Matrigel® (Corning, Corning, NY, USA) mixture.
(§2) Biodistribution of [^177Lu]Lu-NeoB was evaluated when the tumor volume reached ~200 mm^3. The biodistribution was evaluated at 7 time points (1 h, 4 h, 4 h + block, 24 h, 48 h, 96 h, and 168 h). The compound was injected intravenously (100 µL/200 pmol/~0.8 MBq per mice). Moreover, an excess of 40 nmol unlabeled NeoB was co-injected in the mice of the 4 h + block condition. At the selected time point, mice were euthanized by CO2 inhalation, and the main organs and fluids were sampled and weighed. The activity was determined using a gamma well counter (Wizard^2 PerkinElmer, Waltham, MA, USA), the results were corrected for background, decay and sample weight, and the data were expressed as a % ID/g (percentage of injected dose per gram of tissue).

[2] = tested on: SCID mice bearing GIST-882 tumors (GRPR expressing); experiment: as above; type: in vivo
Method: as §1, §2

[3] = Tolerability in the efficacy sub-study (body weight, pancreas histology HES); type: in vivo, mice; conditions: 400 or 800 pmol, 37 MBq once a week for 3 weeks
Method: (§3) Efficacy was evaluated on 40 mice when the tumor volume reached ~100 mm^3. Control mice were intravenously injected with saline (Control group, n = 13), whereas treated mice received either 400 pmol (400 pmol group, n = 13) or 800 pmol (800 pmol group, n = […]) of 37 MBq of [^177Lu]Lu-NeoB once a week for 3 weeks. Tumor size was recorded 3 times per week before and after therapy administration and 5 times per week during the 3 weeks of the therapy administration. When a tumor volume exceeding 1500 mm^3 the animal was removed from the study and euthanized by CO2 inhalation. Pancreas was then frozen, 10 µm-thick slices were stained using hemato-eosin saffron (HES) and subsequently analyzed by a histopathologist.

[4] = tested on: PC-3 bearing mice; conditions: cited from earlier work
Excerpt: In this study, we evaluate for the first time the theragnostic potential of [^177Lu]Lu-NeoB for tumor treatment by performing biodistribution and therapeutic studies in mice bearing GIST. In accordance with above mentioned finding, injected mass ranging from 200 to 800 pmol were employed. […] Indeed, in PC-3 be ...

[5] = tested on: GIST-882 tumor; experiment: Therapeutic efficacy (tumor growth, survival without reaching limit tumor volume); type: in vivo, mice; conditions: for mice excluded due to tumor volume over the limit of 1500 mm^3: 100 days of follow-up, 5 out of 13 control mice reached the limit; for tumor volume in comparison to control group: 37 MBq i.v. once a week for 3 weeks, day 0-26
Method: as §1, §3

[6] = Stability of the radiolabeled preparation by radio-HPLC (RCP); type: physicochemical; conditions: 24 h after labeling; Symmetry C18, H2O/acetonitrile 0.1% TFA gradient
Method: ^177Lu^3+ in aqueous 0.04 M HCl solution was purchased from ITG (Garding, Germany). Chemicals for radiolabeling were of trace metal® grade. Radiochemical purity (RCP) of each radiolabeled solution was determined using a high performance liquid chromatography (HPLC) apparatus (Shimadzu, France) equipped with NaI (Tl) scintillation detectors (LabLogic, UK). The radiolabeling was performed as previously described (25). For the biodistribution sub study, 92 nmol of NeoB was radiolabeled with 370 MBq of ^177LuCl3 and the reaction was then incubated at 95 °C for 7 min. The concentration was then adjusted at 200 pmol/100 µL (0.8 MBq) and a sterilizing filtration was performed. A similar protocol was employed for the therapy sub-study, using 20 nmol of NeoB and 1850 MBq of Lu-177. The concentration was then adjusted at 400 pmol/100 µL (37 MBq). A second solution of 800 pmol per 100 µL (37 MBq) was obtained by the addition of unlabeled NeoB peptide. A 0.22 µm sterile filtration was then performed. Radiochemical purity (RCP) was determined immediately after labeling and at 24 h by radio-HPLC analysis using an analytical reverse-phase column (Symmetry C18, 5 μm, 150 × 4.6 mm). A gradient elution was performed using solvent A (H2O, 0.1% TFA) and solvent B (acetonitrile, 0.1% TFA) as mobile phase at a flow rate of 1 mL/min.

[7] = SPECT-CT quantification of tumor uptake; type: in vivo, mice; conditions: male, SCID, mouse, GIST-882 tumor, iv, total radioactivity, 37 MBq i.v., 24 h post injection, n = 3
Method: Dual single photon emission computed tomography and x-ray computed tomography (SPECT-CT) imaging were performed in a subset of 6 mice of the therapeutic efficacy sub-study (3 from 400 pmol group and 3 from 800 pmol group). Acquisitions were performed the day after [^177Lu]Lu-NeoB injection (24 h post injection). SPECT-CT acquisitions were performed using a dedicated camera (nanoscan SPECT/CT, Mediso, Budapest, Hungary). Animals were placed on a pathogen-free animal handling system (MulticellTM, Mediso, Budapest, Hungary) under gas anesthesia (isoflurane 1–2%). Whole body imaging was performed. SPECT duration was of approximately 35 min, and CT acquisition of 5 min (at 35 kvp). Acquisitions were reconstructed with Nucline software using Monte Carlo reconstruction and scatter and attenuation correction, corrected for decay and expressed as % injected dose per gram (% ID/g). Image analysis was performed using Vivoquant software (version 3.5, Invicro, Boston, MA, USA).

[8] = from time activity curve 1-168 h, 200 pmol i.v.

For CC(C)CC(CC(C)C)NC(=O)[C@H](Cc1cnc[nH]1)NC(=O)CNC(=O)[C@@H](NC(=O)[C@H](C)NC(=O)[C@H](Cc1c[nH]c2ccccc12)NC(=O)[C@H](CCC(N)=O)NC(=O)[C@@H](Cc1ccccc1)NC(=O)COCC(=O)Nc1ccc(CNC(=O)CN2CCN(CC(=O)O)CCN(CC(=O)O)CCN(CC(=O)O)CC2)cc1)C(C)C [[^177Lu]Lu-NeoB, metal not drawn], the tissue uptake at 1 h ([1]; SCID, GIST-882 tumor, 200 pmol/mouse, 1 h pi, 200 pmol/~0.8 MBq i.v., mean ± SD, read-out: uptake in GIST-882 tumor) was 21.6 ± 1.7 %ID/g, the tissue uptake at 4 h ([1]; SCID, GIST-882 tumor, 200 pmol/mouse, 4 h pi, 200 pmol/~0.8 MBq i.v., mean ± SD, read-out: uptake in GIST tumor) was 19.1 ± 3.9 %ID/g and the tissue uptake at 24 h ([1]; SCID, GIST-882 tumor, 200 pmol/mouse, 24 h pi, 200 pmol i.v., mean ± SD) was 13.4 ± 3.5 %ID/g. For the same compound, the tissue uptake at 48 h ([1]; SCID, GIST-882 tumor, 200 pmol/mouse, 48 h pi, 200 pmol i.v., mean ± SD) was 10.5 ± 1.6 %ID/g, the tissue uptake at 96 h ([1]; SCID, GIST-882 tumor, 200 pmol/mouse, 96 h pi, 200 pmol i.v., mean ± SD) was 5.9 ± 0.3 %ID/g and the tissue uptake at 168 h ([1]; SCID, GIST-882 tumor, 200 pmol/mouse, 168 h pi, 200 pmol i.v., mean ± SD) was 2.5 ± 0.7 %ID/g. The tissue uptake at 4 h ([1]; SCID, GIST-882 tumor, 4 h pi, co-injected with excess of 40 nmol unlabeled NeoB, mean ± SD, read-out: uptake in GIST tumor, 4 h + block) was 0.3 ± 0.1 %ID/g, the tissue uptake at 1 h ([1]; SCID, bladder, 200 pmol/mouse, 1 h pi, 200 pmol/~0.8 MBq i.v., mean ± SD, read-out: uptake in bladder) was 20.6 ± 19.7 %ID/g and the tissue uptake at 4 h ([1]; SCID, large bowel content, 200 pmol/mouse, 4 h pi, 200 pmol/~0.8 MBq i.v., mean ± SD, read-out: uptake in large bowel content) was 10 ± 3.5 %ID/g. The tissue uptake at 1 h ([1]; SCID, pancreas, 200 pmol/mouse, 1 h pi, 200 pmol/~0.8 MBq i.v., mean ± SD, read-out: uptake in pancreas) was 19.8 ± 2.6 %ID/g, the tissue uptake at 4 h ([1]; SCID, pancreas, 200 pmol/mouse, 4 h pi, 200 pmol/~0.8 MBq i.v., mean ± SD, read-out: uptake in pancreas) was 8.5 ± 2 %ID/g and the tissue uptake at 4 h ([1]; SCID, pancreas, 4 h pi, co-injected with excess of 40 nmol unlabeled NeoB, mean ± SD, read-out: uptake in pancreas, 4 h + block) was 0.1 %ID/g. It also gave a tissue to tissue ratio ([1]; SCID, tumor and kidney, 200 pmol/mouse, all investigated time points 1-168 h) greater than 1, a tissue to tissue ratio at 96 h ([1]; SCID, tumor and kidney, 200 pmol/mouse, at 96 h, mean ± SD, read-out: tumor-to-kidney ratio (maximum value)) of 112 ± 5 and a tissue to tissue ratio at 48 h ([1]; SCID, tumor and liver, 200 pmol/mouse, at 48 h, mean ± SD, read-out: tumor-to-liver ratio (maximum value)) of 54 ± 5. It also gave a tissue to tissue ratio at 168 h ([1]; SCID, tumor and pancreas, 200 pmol/mouse, at 168 h (1 week), mean ± SD, read-out: tumor-to-pancreas ratio (maximum value)) of 309 ± 148, an excreta dose per gram or mL at 4 h ([1]; SCID, urine, 200 pmol/mouse, 4 h pi, 200 pmol/~0.8 MBq i.v., mean ± SD, read-out: uptake in urine) of 216 ± 193 %ID/g and an excreta dose per gram or mL at 1 h ([1]; urine, 200 pmol/mouse, 1 h pi, 200 pmol/~0.8 MBq i.v., GIST-882 bearing SCID mice, gamma counter, mean ± SD, read-out: uptake in urine) of 600 ± 155 %ID/g. The “uptake in GIST tumor” value ([2]; 4 h pi, 200 pmol/~0.8 MBq i.v., mean ± SD) was 19.1 ± 3.9 % ID/g, the “decrease of uptake in GIST tumor by co-injection of unlabeled NeoB” value ([2]; 4 h pi, 40 nmol unlabeled NeoB) was greater than 98% and the “uptake in GIST tumor, 4 h + block” value ([2]; 4 h pi, co-injected with excess of 40 nmol unlabeled NeoB, mean ± SD) was 0.3 ± 0.1 % ID/g. For the same compound, the “uptake in adrenals, blood, GIST tumor, large and small bowel, pancreas and stomach when co-injected with excess unlabeled NeoB” value ([2]; 4 h pi, p < 0.05, multiple t tests, Holm-Sidak) was “significantly reduced”, the “tumor-to-pancreas ratio (maximum value)” value ([2]; at 168 h (1 week), mean ± SD) was greater than 300 and the half-life in pancreas [2, 8] was 2.41 h and 2.4 h. The “half-life of retention in GIST tumor” value [2, 8] was 40.19 h and 40 h, the “total body weight of treated animals” value [3] was “No change” and the “off-target effect (inflammation, fibrosis, architecture alteration) on HES stained pancreatic sections” value ([3]; end of follow up) was “no off-target effect”. The pancreas half-life ([4]; 200 pmol) was 11 h, the “tumor half-life in prostate tumors” value ([4]; 200 pmol) was 28 h and the tumor-to-pancreas ratio ([4]; as early as 4 h after injection of 200 pmol) was greater than 1. The tumor regression ([5]; 400 pmol dose, 37 MBq once a week for 3 weeks) was “complete tumor regression”, the “mice excluded due to tumor volume over the limit of 1500 mm^3” value ([5]; 400 pmol group) was “none” and the residual tumor ([5]; 400 pmol group, from day 65) was “no residual tumor volume”. The “tumor volume in comparison to control group” value ([5]; 400 pmol, p = 0.0001) was “significantly reduced”, the “mice excluded due to tumor volume over the limit of 1500 mm^3” value ([5]; 800 pmol group) was “none” and the “tumor volume in comparison to control group” value ([5]; 800 pmol, p = 0.0066) was “significantly reduced”. For the same compound, the “stability after labeling (radiochemical purity by radio-HPLC)” value [6] was “remained stable”, the tissue uptake at 24 h ([7]; 400 pmol group) was roughly 11 %ID/g and the tissue uptake at 24 h ([7]; 800 pmol group, p < 0.05 vs 400 pmol) was roughly 7 %ID/g.
